Data on 22 molecules can be found in patent US20240010720A1 (IOMX THERAPEUTICS, published 2024).

Some results are limits rather than exact numbers.

For test [1], the target named is T1, recombinant murine IGSF11 extracellular domain (ECD) (mouse, UniProt P0C673 23-240, biotinylated).
T1 construct: also called Mouse IGSF11; murine ECD-IGSF11
T1 sequence: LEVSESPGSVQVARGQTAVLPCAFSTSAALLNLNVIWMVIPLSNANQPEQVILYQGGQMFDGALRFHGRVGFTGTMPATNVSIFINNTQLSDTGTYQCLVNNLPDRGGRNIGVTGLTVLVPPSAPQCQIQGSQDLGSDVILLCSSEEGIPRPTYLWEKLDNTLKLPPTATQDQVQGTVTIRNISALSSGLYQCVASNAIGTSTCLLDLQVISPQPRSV
Briefly: ELISA, Fab.
Protocol: (§1) In order to identify IGSF11-specific binding ABPs, monoclonal Fabs expressed from E. coli were generated from the enriched set of anti-IGFS11 antibody-expressing phage. After bacterial lysis, the Fabs were tested for their binding properties and cross-reactivity profile on recombinant ECD-IGSF11 (human, mouse and cynomolgus monkey) by standard ELISA. Briefly, biotinylated recombinant ECD-IGSF11 from human, mouse, or cynomolgus monkey were immobilized at 2 ug/mL on a streptavidin-coated 384-well Maxisorp plate. The surface was blocked with 2% (w/v) skim milk powder in PBST. After three wash cycles with PBST, a bacterial lysate of each of the anti-IGSF11 Fabs in 2% (w/v) skim milk powder was applied to the immobilized IGSF11 and incubated for 1 h. After removing all unbound Fab by 3 wash cycles with PBST, bound Fab antibodies were detected with a goat anti-human Fab antibody conjugated with horseradish peroxidase. After three wash cycles with PBST the ELISA was developed with TMB substrate.

The target of test [2] is T2, Streptavidin (UniProt P22629 37-163, limits assumed).
T2 construct: also called negative antigen; irrelevant antigen
Briefly: ELISA, Fab.
Protocol: as §1

Test [3] deals with T2, Streptavidin. The experiment in a line: ELISA, scFv.
The target in test [4] is T3, human IGSF11 (VSIG3) on cells (human, UniProt Q5DX21 23-431).
T3 sequence: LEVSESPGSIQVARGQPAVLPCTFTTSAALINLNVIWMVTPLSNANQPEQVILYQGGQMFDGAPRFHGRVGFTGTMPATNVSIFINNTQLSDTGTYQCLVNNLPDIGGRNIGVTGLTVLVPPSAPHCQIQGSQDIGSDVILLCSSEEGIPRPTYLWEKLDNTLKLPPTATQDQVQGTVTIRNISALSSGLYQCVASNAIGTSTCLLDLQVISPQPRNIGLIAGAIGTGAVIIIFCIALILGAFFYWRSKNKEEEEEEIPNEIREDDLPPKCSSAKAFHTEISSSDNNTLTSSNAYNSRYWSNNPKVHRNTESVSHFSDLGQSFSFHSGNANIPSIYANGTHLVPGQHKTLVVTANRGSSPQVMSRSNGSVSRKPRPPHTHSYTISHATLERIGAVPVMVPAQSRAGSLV
The experiment in a line: FACS % positive cells, scFv.

T2 sequence (P22629 37-163 limits assumed): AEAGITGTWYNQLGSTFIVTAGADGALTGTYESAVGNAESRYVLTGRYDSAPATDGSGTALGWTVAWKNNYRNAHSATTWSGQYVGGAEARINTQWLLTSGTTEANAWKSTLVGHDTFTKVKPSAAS

B1: C-016 (Fab format) (Fab, V domains shown)
VH: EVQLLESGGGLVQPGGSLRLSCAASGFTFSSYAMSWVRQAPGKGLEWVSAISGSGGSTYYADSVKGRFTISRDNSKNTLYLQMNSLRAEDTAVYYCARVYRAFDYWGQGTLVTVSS
VL: ASVLTQPPSVSAAPGQKVTISCSGSSSNIGNNYVSWYQQLPGTAPKLLIYDNNKRPSGIPDRFSGSKSGTSATLGITGLQAEDEADYYCHLYTEAESHWVFGGGTKLTVL
notes: Fab in E. coli lysate
Turning to B1, the A450 in test [1] is < 1; in test [2], < 0.1.

B2: C-002 (Fab format) (Fab, V domains shown)
VH: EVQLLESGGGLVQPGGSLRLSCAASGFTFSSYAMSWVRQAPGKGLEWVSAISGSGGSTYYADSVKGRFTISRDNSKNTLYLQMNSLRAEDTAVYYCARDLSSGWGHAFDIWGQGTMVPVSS
VL: ASVLTQPPSVSAAPGQKVTISCSGSSSNIGNNYVSWYQQLPGTAPKLLIYDNNKRPSGIPDRFSGSKSGTSATLGITGLQAEDEADYYCLSYTTSEHHLVFGGGTKLTVL
notes: Fab in E. coli lysate
In the case of B2, the A450 in test [1] is < 1; in test [2], < 0.1.

B3: C-026 (Fab format) (Fab, V domains shown)
VH: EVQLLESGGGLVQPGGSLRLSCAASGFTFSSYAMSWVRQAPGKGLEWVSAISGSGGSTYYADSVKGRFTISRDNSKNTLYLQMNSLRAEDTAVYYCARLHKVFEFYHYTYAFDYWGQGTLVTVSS
VL: ASVLTQPPSVSAAPGQKVTISCSGSSSNIGNNYVSWYQQLPGTAPKLLIYDNNKRPSGIPDRFSGSKSGTSATLGITGLQAEDEADYYCASYSSETSGWVFGGGTKLTVL
notes: Fab in E. coli lysate
Take B3: the A450 in test [2] is < 0.1.

B4: A-014 (scFv format) (scFv, V domains shown)
VH: QVQLVQSGAEVKKPGASVKVSCKASGYTFNDYYIHWVRQAPGQGLEWMGWFNPSTGGANYAQKFQGRVTMTRDTSISTAYLEVSSLRSDDTAVYYCARGNSPDLDYWGQGTLVTVSS
VL: DIQMTQSPDSLTVSLGERATINCKSSQSLLHSSNNKNYLAWYQQRPGQPPKLLIYWASTRQSGVPDRFSGSGSGTDFTLTINSLQADDMAVYYCQQYYTTTPNTFGQGTKLEIK
notes: scFv
For the molecule B4, the binding result is recorded as “no binding (tested: <0.025 or <0.05 RFU)” in test [3] and “binds” in test [4].

B5: C-021 (Fab format) (Fab, V domains shown)
VH: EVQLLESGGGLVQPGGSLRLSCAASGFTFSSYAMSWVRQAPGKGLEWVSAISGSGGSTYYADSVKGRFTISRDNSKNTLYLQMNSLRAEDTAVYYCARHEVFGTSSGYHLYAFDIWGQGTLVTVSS
VL: DIQMTQSPSSLSASVGDRVTITCRASQSISSYLNWYQQKPGKAPKLLIYAASSLQSGVPSRFSGSGSGTDFTLTISSLQPEDFATYYCQQWSGLPLTFGQGTKVEIK
notes: Fab in E. coli lysate
On to B5, for which the A450 was < 1 in test [1] and < 0.1 in test [2].

B6: C-022 (Fab format) (Fab, V domains shown)
VH: EVQLLESGGGLVQPGGSLRLSCAASGFTFSSYAMSWVRQAPGKGLEWVSAISGSGGSTYYADSVKGRFTISRDNSKNTLYLQMNSLRAEDTAAYYCARMAAGASWGTFDYWSQGTLVTVSS
VL: DIQMTQSPSSLSASVGDRVTITCRASQSISSYLNWYQQKPGKAPKLLIYAASSLQSGVPSRFSGSGSGTDFTLTISSLQPEDFATYYCQQRSGSPLTFGQGTKVEIK
notes: Fab in E. coli lysate
B6: the A450 in test [2] is < 0.1.

B7: C-020 (Fab format) (Fab, V domains shown)
VH: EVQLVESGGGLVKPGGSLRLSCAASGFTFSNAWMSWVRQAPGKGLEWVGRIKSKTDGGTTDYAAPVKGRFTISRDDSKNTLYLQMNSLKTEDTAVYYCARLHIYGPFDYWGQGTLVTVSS
VL: SYELTQPPSVSVSPGQTASITCSGDKLGDKYASWYQQKPGQSPVLVIYQDSKRPSGIPERFSGSNSGNTATLTISGTQAEDEADYYCLSYLARSGSVVFGGGTKLTVL
notes: Fab in E. coli lysate
Take B7: in test [1], the A450 is < 1.

B8: C-024 (Fab format) (Fab, V domains shown)
VH: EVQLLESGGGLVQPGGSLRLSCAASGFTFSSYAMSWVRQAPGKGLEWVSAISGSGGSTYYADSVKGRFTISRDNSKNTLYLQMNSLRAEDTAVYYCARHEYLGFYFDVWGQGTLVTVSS
VL: SYELTQPPSVSVSPGQTASITCSGDKLGDKYASWYQQKPGQSPVLVIYQDSKRPSGIPERFSGSNSGNTATLTISGTQAEDEADYYCLASHRLTLNYVFGGGTKLTVL
notes: Fab in E. coli lysate
Turning to B8, the A450 in test [1] is < 1.

B9: C-015 (Fab format) (Fab, V domains shown)
VH: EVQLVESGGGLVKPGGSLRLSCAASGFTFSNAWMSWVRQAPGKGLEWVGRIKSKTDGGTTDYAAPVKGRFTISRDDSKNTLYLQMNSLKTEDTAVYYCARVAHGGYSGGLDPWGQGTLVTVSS
VL: SYELTQPPSVSVSPGQTASITCSGDKLGDKYASWYQQKPGQSPVLVIYQDSKRPSGIPERFSGSNSGNTATLTISGTQAEDEADYYCSSTGTAHTLAVFGGGTKLTVL
notes: Fab in E. coli lysate
As for B9, the A450 in test [1] was < 1; in test [2] it was < 0.1.

B10: C-009 (Fab format) (Fab, V domains shown)
VH: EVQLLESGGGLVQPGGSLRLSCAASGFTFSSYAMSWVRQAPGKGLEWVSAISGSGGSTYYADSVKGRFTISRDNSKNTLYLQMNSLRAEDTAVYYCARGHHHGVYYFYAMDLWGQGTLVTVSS
VL: SYELTQPPSVSVSPGQTASITCSGDKLGDKYASWYQQKPGQSPVLVIYQDSKRPSGIPERFSGSNSGNTATLTISGTQAEDEADYYCQSYSGSSTLHVFGGGTKLTVL
notes: Fab in E. coli lysate
In the case of B10, the A450 in test [2] is < 0.1.

B11: C-023 (Fab format) (Fab, V domains shown)
VH: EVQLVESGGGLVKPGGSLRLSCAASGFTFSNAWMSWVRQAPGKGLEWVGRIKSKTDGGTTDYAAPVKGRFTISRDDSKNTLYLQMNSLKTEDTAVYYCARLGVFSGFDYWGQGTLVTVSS
VL: SYELTQPPSVSVSPGQTASITCSGDKLGDKYASWYQQKPGQSPVLVIYQDSKRPSGIPERFSGSNSGNTATLTISGTQAEDEADYYCHTWTHHSLAVVFGGGTKLTVL
notes: Fab in E. coli lysate
As for B11, the A450 was < 1 in test [1] and < 0.1 in test [2].

B12: A-028 (scFv format) (scFv, V domains shown)
VH: QVQLVQSGAEVKKPGSSVKVSCKASGGTFSSYAISWVRQAPGQGLEWMGGIIPIFGTANYAQKFQGRVTITADESTSTAYMELSSLRSEDTAVYYCARVGVEYQLLWYFDYWGQGTLVTVSS
VL: DIQMTQSPSSLSASVGDRVTLTCRTSQTISNYLNWYQQKPGKAPKLLVYAASNLQSWVPSRFSGSGSGTDFTLTISSLQPEDFATYYCQQSYNASFGGGTKVEFK
notes: scFv
As for B12, the binding result in test [3] was “no binding (tested: <0.025 or <0.05 RFU)”; in test [4] it was “binds”.

B13: C-017 (Fab format) (Fab, V domains shown)
VH: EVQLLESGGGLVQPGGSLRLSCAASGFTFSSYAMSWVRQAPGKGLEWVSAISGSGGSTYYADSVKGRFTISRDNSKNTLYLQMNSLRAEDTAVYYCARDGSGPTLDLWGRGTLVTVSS
VL: DIQMTQSPSSLSASVGDRVTITCRASQSISSYLNWYQQKPGKAPKLLIYAASSLQSGVPSRFSGSGSGTDFTLTISSLQPEDFATYYCQQHRYIPPWTFGQGTKVEIK
notes: Fab in E. coli lysate
B13: in test [1], the A450 was < 1.

B14: C-008 (Fab format) (Fab, V domains shown)
VH: EVQLLESGGGLVQPGGSLRLSCAASGFTFSSYAMSWVRQAPGKGLEWVSAISGSGGSTYYADSVKGRFTISRDNSKNTLYLQMNSLRAEDTAVYYCTTDNGHNRDWGQGTLVTVSS
VL: ASVLTQPPSVSAAPGQKVTISCSGSSSNIGNNYVSWYQQLPGTAPKLLIYDNNKRPSGIPDRFSGSKSGTSATLGITGLQAEDEADYYCGTWTRSSGVFGGGTKLTVL
notes: Fab in E. coli lysate
As to B14, the A450 in test [2] was < 0.1.

B15: A-021 (scFv format) (scFv, V domains shown)
VH: QVQLVQSGAEVKKPGASVKVSCKASGYTFTSYGISWVRQAPGQGLEWMGWISAYNGNTNYAQKLQGRVTMTTDTSTSTAYMELRSLRSDDTAVYYCARVPAWSGQFDYWGQGTLVTVSS
VL: QSALTQPASVSGSPGQSITISCTGTSSDVGGYNYVSWYQQHPGKAPKLMIYEVTNRPSGVSDRFSGSKSANTASLTISELQAEDEAVYYCNSYTSGPTYVLFGGGTQLTVL
notes: scFv
On to B15, for which the results for the binding result in test [3] and in test [4] were “no binding (tested: <0.025 or <0.05 RFU)” and “binds”, respectively.

B16: A-031 (scFv format) (scFv, V domains shown)
VH: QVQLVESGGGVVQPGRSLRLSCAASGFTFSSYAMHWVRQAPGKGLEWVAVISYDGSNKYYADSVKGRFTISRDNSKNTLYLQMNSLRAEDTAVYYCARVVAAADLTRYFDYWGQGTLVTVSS
VL: EIVLTQSPGTVSLSPGERATLSCRASQSVPKNYLAWFQQKPGQAPRLVIHTASSRAPGIPDRFTGSGSGTDFTLTISRLEPEDFAVYYCQQYGTSPNTFGQGTKLDIK
notes: scFv
With B16, the binding result was “no binding (tested: <0.025 or <0.05 RFU)” in test [3] and “binds” in test [4].

B17: A-030 (scFv format) (scFv, V domains shown)
VH: QVQLVQSGAEVKKPGASVKVSCKASGYTFTGYYMHWVRQAPGQGLEWMGWINPNSGNTGYAQKFQGRVTMTRNTSISTAYMELSSLRSEDTAVYYCARGGQQQLVLDDYWGQGTLVTVSS
VL: DIQLTQSPSTLSASVGDRVTITCRASQSIGGWLAWYQHKPGKAPKLLIYAASSLQSGVPSRFSGSGSGTDFTLTISSLQPEDFATYYCRQSYSTPPTFGQGTKVEIK
notes: scFv
For B17, the results for the binding result in test [3] and in test [4] were “no binding (tested: <0.025 or <0.05 RFU)” and “binds”, respectively.

B18: A-019 (scFv format) (scFv, V domains shown)
VH: QVQLVQSGAEVKKPGASVKVSCKASGYTFTGYYMHWVRQAPGQGLEWMGWINPNSGNTGYAQKFQGRVTMTRNTSISTAYMELSSLRSEDTAVYYCARGGQQQLVLDDYWGQGTLVTVSS
VL: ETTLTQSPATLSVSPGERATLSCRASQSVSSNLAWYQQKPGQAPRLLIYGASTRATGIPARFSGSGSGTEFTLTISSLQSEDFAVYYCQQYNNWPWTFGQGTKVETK
notes: scFv
On to B18, for which the binding result in test [3] is recorded as “no binding (tested: <0.025 or <0.05 RFU)”; in test [4] it was “binds”.

B19: A-032 (scFv format) (scFv, V domains shown)
VH: QVQLVQSGAEVKKPGASVKVSCKASGYTFTGYYMHWVRQAPGQGLEWMGWMNPNSGNTGYAQKFQGRVTMTRNTSISTAYMELSSLRSEDTAVYYCARGGQQQLVLDDYWGQGTLVTVSS
VL: not shown
For B19, the binding result was “no binding (tested: <0.025 or <0.05 RFU)” in test [3] and “binds” in test [4].

B20: A-017 (scFv format) (scFv, V domains shown)
VH: QVQLVQSGAEVKKPGASVKVSCKASGYTFTGYYMHWVRQAPGQGLEWMGWINPNSGNTGYAQKFQGRVTMTRNTSISTAYMELSSLRSEDTAVYYCARGGQQQLVLDDYWGQGTLVTVSS
VL: DIVLTQSPASLSASVGDRITITCQASQDIRHHLNWFQHKPGKAPKLLISDSSNLETGVPSRFSGSGSGTDFSFTISRLQPEDIATYYCQQYDSLPRTFGQGTKLEIK
notes: scFv
With B20, the binding result is “no binding (tested: <0.025 or <0.05 RFU)” in test [3] and “binds” in test [4].

B21: A-037 (scFv format) (scFv, V domains shown)
VH: QVQLVQSGAEVKKPGASVKVSCKASGYTFTGYYMHWVRQAPGQGLEWMGWINPNSGNTGYAQKFQGRVTMTRNTSISTAYMELSSLRSEDTAVYYCARGGQQQLVLDDYWGQGTLVTVSS
VL: NFMLTQPHSVSESPGKTVTISCTGSSGSIASNYVQWYQQRPGSAPTTVIYEDNQRPSGVPDRFSGSIDSSSNSASLTISGLKTEDEADYYCQSYDSSNQRVFGGGTKLTVL
notes: scFv
In the case of B21, the binding result is listed as “no binding (tested: <0.025 or <0.05 RFU)” in test [3] and “binds” in test [4].

B22: A-036 (scFv format) (scFv, V domains shown)
VH: QVQLVQSGAEVKKPGASVKVSCKASGYTFTGYYMHWVRQAPGQGLEWMGWINPNSGGTNYAQKFQGRVTMTRNTSISTAYMELSSLRSEDTAVYYCARGGQQQLVLDDYWGQGTLVTVSS
VL: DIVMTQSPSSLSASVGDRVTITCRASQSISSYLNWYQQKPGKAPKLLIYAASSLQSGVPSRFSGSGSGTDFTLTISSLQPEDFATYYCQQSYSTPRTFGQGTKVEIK
notes: scFv
As for B22, the binding result in test [3] is on record as “no binding (tested: <0.025 or <0.05 RFU)”; in test [4], “binds”.
